Test results taken from patent publication US20260097138A1, “BIOMATERIAL COATED NANOSTRUCTURES FOR PHOTOACOUSTIC IMAGING AND PHOTOTHERMAL THERAPY OF TUMOR LESIONS” (OSPEDALE SAN RAFFAELE S.R.L., priority 2022, published 2026).
One block for each molecule: values may come before it. Starred links: 1 amine or outer side, 2 acyl side, 3 side chain; linkers in the order of their positions; H or OH if unused. Positions of bridges follow the written chain, without caps; N, C: chain ends. Non-standard residues stand in square brackets, D forms with d. Residues, ends and D or L forms follow the SMILES beside them. βAsp = O=C(O)[C@H](CC(=O)[*:2])N[*:1]; dPhg = N[C@@H](C(=O)O)c1ccccc1; Phg = N[C@H](C(=O)O)c1ccccc1

Tests used:
MB49-Luc cells [1] = experiment: Cell adhesion assay on coated microtiter plates; assay type: cell-based, murine; conditions: MB49-Luc cells; plates coated with 250 μg/ml GNRs
Description: (§1) The plates were washed and blocked with 2% BSA in DMEM or RPMI-1640 (200 μl/well, 1 h). MB49-Luc and 5637 cells were detached with DPBS-E, washed twice with DPBS, and suspended in DMEM or RPMI-1640 containing 0.1% BSA (binding buffer-3), and added to the coated-plates (1.5×10^5 cells/well, 100 μl). After 1-2 h of incubation at 37° C., 5% CO2, the plates were washed with binding buffer-3. Adherent cells were fixed and stained with 0.5% crystal violet in 20% methanol. After washing with water, the dye was extracted from cells using a 10% acetic acid solution (140 μl/well) and the absorbance at 570 nm was measured using a microplate reader.

5637 cells [2] = experiment: Cell adhesion assay on coated microtiter plates; assay type: cell-based, human; conditions: plates coated with 250 μg/ml GNRs
Description: as §1

[3] = tested on: MB49-Luc derived orthotopic bladder tumor; experiment: PAI of orthotopic MB49-Luc bladder tumor after intravesical instillation; assay type: in vivo, mice; conditions: intravesical co-administration
Description: Murine orthotopic bladder tumor model: All procedures and studies involving mice were approved by the Institutional Animal Care and Use Committee of San Raffaele Scientific Institute and performed according to the prescribed guidelines (IACUC, approval number 942). Female albino C57BL/6J mice (9 weeks old, weighing about 20 g, Charles River Laboratories, Italy) were anesthetized with ketamine (80 mg/kg) and xylazine (15 mg/kg) and kept in dorsal position. Using a 24-gauge catheter, the bladder of each mouse was emptied and instilled with or without MB49-Luc cells (10^5 cells/100 μl in DPBS). Thirty minutes later the catheter was removed, and mice were allowed to recover and returned to their cage. Tumor growth was monitored by measuring the tumor volume through US imaging (see below) and in vivo bioluminescent quantification after administration of luciferin (15 mg/kg, intra peritoneum) using the non-invasive In Vivo Imaging System (IVIS, PerkinElmer, USA).
US and PAI of GNRs@Chit and GNRs@Chit-Iso4: High-resolution US and PA imaging have been acquired using the Vevo LAZR-X platform (FUJIFILM VisualSonics, Inc., Toronto, ON, Canada). The imaging platform includes a high frequency US system (Vevo 3100) combined with an Nd:YAG nano-second pulsed laser with repetition rate of 20 Hz. The linear US transducer array Mx 550D consists of 256 elements with a nominal center frequency of 40 MHz (25-55 MHz bandwidth) and a spatial resolution of 40 μm with a maximum imaging depth of 15 mm. Light from the laser is delivered to the tissue through optical fibers mounted on either side of the transducer. During volumetric US-PA acquisitions, a stepper motor is used for the linear translation of the US transducer and optical fibers along the sample. The linear stepper motor moves in steps of a minimum of 0:1 mm while capturing 2-D parallel images, for a maximum 3D range distance of 6.4 cm.
3D B mode scan was carried out for in vitro (drop) and in vivo (mouse bladder) studies. The photoacoustic spectra between 680 nm and 970 nm were scanned with a step size of 5 nm; for the in vivo studies (murine bladder) the 3D multispectral PA scans were acquired selecting PA spectral curve of tissue components melanin, deoxy- and oxy-generated blood, and GNRs; the processed wavelengths (680; 722; 764; 810; 924; 970 nm) were automatically selected from the spectral curve used to spectrally unmix the GNRs signal from other endogenous tissue chromophore signals such as oxy, deoxy hemoglobin. The algorithm reported by Luke et al was used to select these wavelengths which is ideal for separating the signal from GNRs from other endogenous absorbers.
Data analyses were conducted using the Vevo® Lab software; volumes of interest were obtained by manually drawing Volumes of Interest (VOIs) on 3D B-mode images. GNRs, melanin, oxy- and deoxy-hemoglobin content were estimated through spectral unmixing analyses of the spectroscopic data.

human integrin α5β1 = biological target: T1, human integrin α5β1 (Homo sapiens, UniProt P05556+P08648); experiment: α5β1 integrin binding assay with HRP conjugates; conditions: for binding of HRP conjugate to plates coated with α5β1: no detergent in buffers, OPD substrate
T1 construct: purchased Immunological Sciences (Rome, Italy)
Description: The final products were called Iso4-HRP and ARA-HRP. The conjugates were diluted (range 0-400 nM) in 25 mM Tris-HCl, pH 7.4, containing 150 mM sodium chloride, 1 mM magnesium chloride, 1 mM manganese chloride and 1% BSA (binding buffer-2) and added to 96-well plate polyvinyl chloride (PVC) microtiter plates (Carlo Erba, cod. FA5280100) coated with or without α5β1 (4 μg/ml) and left to incubate for 2 h. The plates were washed with 25 mM Tris-HCl, pH 7.4, containing 150 mM of sodium chloride, 1 mM of magnesium chloride, 1 mM of manganese chloride, and bound peroxidase was detected by adding a chromogenic solution (o-phenylenediamine dihydrochloride, OPD). The chromogenic reaction was stopped by adding 1 N sulfuric acid. The absorbance at 490 nm was then measured using a microtiter plate reader. The effect of human urine (from a healthy donor) on the binding of Iso4-HRP was studied as described above by mixing Iso4-HRP (300 nM final concentration) and various amounts of urine diluted in binding buffer-2.

MB49-Luc cells [4] = experiment: Binding of Iso4-Qdot / ARA-Qdot to cells (FACS); assay type: cell-based, murine; conditions: flow cytometry, 2 h at 37° C.
Description: (§2) The binding of Iso4-Qdot and ARA-Qdot to MB49-Luc and 5637 cells was assessed through FACS and fluorescence microscopy experiments. FACS analysis was carried out as follows: the cells were detached with DPBS containing 5 mM EDTA pH 8.0 (DPBS-E), washed with DPBS, and suspended in 25 mM Hepes buffer, pH 7.4, containing 150 mM sodium chloride, 1 mM magnesium chloride, 1 mM manganese chloride, 1% BSA (binding buffer-1) and Iso4- or ARA-Qdot (range 30-0 nM, 5×10^5 cells/100 μl tube). After 2 h of incubation at 37° C., the cells were washed with binding buffer-1 without BSA and fixed with 4% formaldehyde. Bound fluorescence was detected using a CytoFLEX S cytofluorimeter (Beckman Coulter). The binding of Iso4-Qdot and ARA-Qdot to living 5637 cells was analyzed as follows: 5637 cells were cultured in a 96-well clear bottom black plate (5×10^4 cells/well) for 48 h, 5% CO2, 37° C. The plates were washed with binding buffer-1 and incubated with Iso4-Qdot or ARA-Qdot solution (30 nM in binding buffer-1) for 2 h at 37° C., 5% CO2. The cells were then washed with binding buffer-1, and fixed with 3% paraformaldehyde and 2% sucrose for 20 min. Bound fluorescence was acquired using the Cellomics ArrayScan XTI Studio Scan (Thermo Fischer Scientific) system.

5637 cells [5] = experiment: Binding of Iso4-Qdot / ARA-Qdot to cells (FACS, fluorescence microscopy); assay type: cell-based, human; conditions: flow cytometry and fluorescence microscopy, 2 h at 37° C.
Description: as §2

[6] = biological target: mouse integrin α5 subunit on the surface of MB49-Luc cells (mouse) (UniProt P11688); experiment: flow cytometry on MB49-Luc cells, 5 µg/ml antibody
[7] = biological target: human integrin α5 subunit on the surface of human urothelial and bladder carcinoma cells (human) (UniProt P08648); experiment: flow cytometry on RT4 bladder carcinoma cells, 5 µg/ml antibody
[8] = biological target: human integrin α5 subunit on the surface of human urothelial and bladder carcinoma cells (human) (UniProt P08648); experiment: flow cytometry on HT1376 bladder carcinoma cells, 5 µg/ml antibody
[9] = biological target: human integrin α5 subunit on the surface of human urothelial and bladder carcinoma cells (human) (UniProt P08648); experiment: flow cytometry on 5637 bladder carcinoma cells, 5 µg/ml antibody
[10] = biological target: human integrin α5 subunit on the surface of human urothelial and bladder carcinoma cells (human) (UniProt P08648); experiment: flow cytometry on RT112 bladder carcinoma cells, 5 µg/ml antibody
[11] = biological target: human integrin α5 subunit on the surface of human urothelial and bladder carcinoma cells (human) (UniProt P08648); experiment: flow cytometry on PCS-420-010 primary urothelial cells, 5 µg/ml antibody
[12] = biological target: human integrin α5 subunit on the surface of human urothelial and bladder carcinoma cells (human) (UniProt P08648); experiment: flow cytometry on HBLAK primary urothelial cells, 5 µg/ml antibody
[13] = biological target: mouse integrin β1 subunit on the surface of MB49-Luc cells (mouse) (UniProt P09055); experiment: flow cytometry on MB49-Luc cells, 5 µg/ml antibody
[14] = biological target: human integrin β1 subunit on the surface of human urothelial and bladder carcinoma cells (human) (UniProt P05556); experiment: flow cytometry on RT4 bladder carcinoma cells, 5 µg/ml antibody
[15] = biological target: human integrin β1 subunit on the surface of human urothelial and bladder carcinoma cells (human) (UniProt P05556); experiment: flow cytometry on HT1376 bladder carcinoma cells, 5 µg/ml antibody
[16] = biological target: human integrin β1 subunit on the surface of human urothelial and bladder carcinoma cells (human) (UniProt P05556); experiment: flow cytometry on 5637 bladder carcinoma cells, 5 µg/ml antibody
[17] = biological target: human integrin β1 subunit on the surface of human urothelial and bladder carcinoma cells (human) (UniProt P05556); experiment: flow cytometry on RT112 bladder carcinoma cells, 5 µg/ml antibody
[18] = biological target: human integrin β1 subunit on the surface of human urothelial and bladder carcinoma cells (human) (UniProt P05556); experiment: flow cytometry on PCS-420-010 primary urothelial cells, 5 µg/ml antibody
[19] = biological target: human integrin β1 subunit on the surface of human urothelial and bladder carcinoma cells (human) (UniProt P05556); experiment: flow cytometry on HBLAK primary urothelial cells, 5 µg/ml antibody
[20] = biological target: α5β1 integrin on murine MB49-Luc bladder cancer cells (mouse, UniProt P11688 45-1053; P09055 21-798); experiment: cell-based or functional assay
[21] = biological target: α5β1 integrin on human 5637 bladder cancer cells (human, UniProt P08648 42-1049; P05556 21-798); experiment: cell-based or functional assay
Chain of α5β1 integrin on human 5637 bladder cancer cells (P08648 42-1049, chain 1 of 2): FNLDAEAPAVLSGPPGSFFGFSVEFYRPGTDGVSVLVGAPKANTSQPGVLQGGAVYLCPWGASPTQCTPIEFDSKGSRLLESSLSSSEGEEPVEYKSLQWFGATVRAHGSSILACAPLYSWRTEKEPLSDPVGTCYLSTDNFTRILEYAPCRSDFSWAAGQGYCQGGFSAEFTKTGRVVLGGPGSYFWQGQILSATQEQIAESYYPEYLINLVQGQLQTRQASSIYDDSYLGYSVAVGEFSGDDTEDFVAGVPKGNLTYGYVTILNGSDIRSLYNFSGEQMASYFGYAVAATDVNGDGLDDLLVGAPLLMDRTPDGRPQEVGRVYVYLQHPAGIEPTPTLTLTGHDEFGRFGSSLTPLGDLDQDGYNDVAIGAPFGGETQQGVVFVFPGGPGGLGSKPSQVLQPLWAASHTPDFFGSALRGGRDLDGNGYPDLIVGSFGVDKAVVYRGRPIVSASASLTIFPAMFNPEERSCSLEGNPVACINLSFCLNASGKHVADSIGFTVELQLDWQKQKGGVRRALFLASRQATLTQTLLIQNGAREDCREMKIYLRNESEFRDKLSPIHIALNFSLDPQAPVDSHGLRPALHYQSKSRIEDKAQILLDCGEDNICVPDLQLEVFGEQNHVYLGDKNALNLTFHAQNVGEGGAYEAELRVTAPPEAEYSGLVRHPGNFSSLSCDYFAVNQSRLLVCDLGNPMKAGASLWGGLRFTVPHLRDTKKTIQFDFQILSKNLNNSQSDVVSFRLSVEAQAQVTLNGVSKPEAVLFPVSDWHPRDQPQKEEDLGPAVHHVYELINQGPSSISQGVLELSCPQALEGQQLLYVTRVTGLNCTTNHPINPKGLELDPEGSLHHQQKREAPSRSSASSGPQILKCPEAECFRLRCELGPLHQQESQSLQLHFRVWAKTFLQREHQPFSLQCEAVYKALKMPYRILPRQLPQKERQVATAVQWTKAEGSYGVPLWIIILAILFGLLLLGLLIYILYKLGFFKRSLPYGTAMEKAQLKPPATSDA
Chain of α5β1 integrin on human 5637 bladder cancer cells (P05556 21-798, chain 2 of 2): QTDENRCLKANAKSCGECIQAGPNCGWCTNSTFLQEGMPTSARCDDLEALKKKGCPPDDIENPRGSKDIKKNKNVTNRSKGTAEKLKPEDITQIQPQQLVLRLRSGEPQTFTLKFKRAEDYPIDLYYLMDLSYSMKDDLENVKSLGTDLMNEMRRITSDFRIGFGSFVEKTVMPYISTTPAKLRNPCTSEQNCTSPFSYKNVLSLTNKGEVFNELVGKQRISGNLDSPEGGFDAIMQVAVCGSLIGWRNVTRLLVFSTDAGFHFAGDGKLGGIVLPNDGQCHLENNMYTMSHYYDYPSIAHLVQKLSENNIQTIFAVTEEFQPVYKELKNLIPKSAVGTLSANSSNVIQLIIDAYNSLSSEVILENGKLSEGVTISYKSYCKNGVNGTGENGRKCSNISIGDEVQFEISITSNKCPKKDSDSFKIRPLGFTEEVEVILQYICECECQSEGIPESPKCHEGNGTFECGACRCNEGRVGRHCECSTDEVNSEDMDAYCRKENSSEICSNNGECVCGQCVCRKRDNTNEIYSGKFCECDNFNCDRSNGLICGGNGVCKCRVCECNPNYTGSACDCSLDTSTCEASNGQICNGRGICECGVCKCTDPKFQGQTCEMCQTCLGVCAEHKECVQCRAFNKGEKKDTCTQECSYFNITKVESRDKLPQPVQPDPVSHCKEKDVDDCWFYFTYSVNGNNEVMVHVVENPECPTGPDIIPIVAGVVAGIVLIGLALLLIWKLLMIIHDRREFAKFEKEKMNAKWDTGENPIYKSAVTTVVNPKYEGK

T1 sequence (P08648 42-894 limits assumed): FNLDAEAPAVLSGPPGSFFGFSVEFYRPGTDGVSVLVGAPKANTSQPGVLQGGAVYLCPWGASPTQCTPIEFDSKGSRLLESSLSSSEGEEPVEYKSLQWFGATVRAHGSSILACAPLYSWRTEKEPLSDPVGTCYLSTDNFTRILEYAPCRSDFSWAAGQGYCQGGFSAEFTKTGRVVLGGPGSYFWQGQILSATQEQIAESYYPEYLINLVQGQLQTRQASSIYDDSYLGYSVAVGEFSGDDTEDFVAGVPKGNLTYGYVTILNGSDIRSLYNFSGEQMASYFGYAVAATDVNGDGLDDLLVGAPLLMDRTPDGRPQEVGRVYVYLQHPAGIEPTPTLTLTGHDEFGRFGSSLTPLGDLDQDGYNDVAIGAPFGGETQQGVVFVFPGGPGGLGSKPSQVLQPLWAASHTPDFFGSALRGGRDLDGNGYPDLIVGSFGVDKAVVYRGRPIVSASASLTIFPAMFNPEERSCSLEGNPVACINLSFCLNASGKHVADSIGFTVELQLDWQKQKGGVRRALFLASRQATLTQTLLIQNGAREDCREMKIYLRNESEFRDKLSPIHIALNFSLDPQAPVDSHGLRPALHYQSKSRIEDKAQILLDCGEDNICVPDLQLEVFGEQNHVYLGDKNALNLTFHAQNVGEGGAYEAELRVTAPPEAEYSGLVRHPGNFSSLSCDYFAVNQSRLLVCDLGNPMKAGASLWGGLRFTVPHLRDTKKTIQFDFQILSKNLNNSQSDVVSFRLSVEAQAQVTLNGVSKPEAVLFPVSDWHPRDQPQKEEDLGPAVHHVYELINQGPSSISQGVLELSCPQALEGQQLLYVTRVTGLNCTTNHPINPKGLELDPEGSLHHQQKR
T1 sequence (P08648 895-1049 partner limits assumed): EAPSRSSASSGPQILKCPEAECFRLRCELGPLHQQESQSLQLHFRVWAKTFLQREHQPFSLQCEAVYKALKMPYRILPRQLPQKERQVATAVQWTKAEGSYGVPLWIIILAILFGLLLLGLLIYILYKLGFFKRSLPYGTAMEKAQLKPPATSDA
T1 sequence (P05556 21-798): as the sequence (P05556 21-798, chain 2 of 2) above
Chain of human integrin β1 subunit on the surface of human urothelial and bladder carcinoma cells (human) (P05556 21-798): as the sequence (P05556 21-798, chain 2 of 2) above
Chain of human integrin α5 subunit on the surface of human urothelial and bladder carcinoma cells (human) (P08648 42-1049): as the sequence (P08648 42-1049, chain 1 of 2) above
Chain of α5β1 integrin on murine MB49-Luc bladder cancer cells (P11688 45-1053, chain 1 of 2): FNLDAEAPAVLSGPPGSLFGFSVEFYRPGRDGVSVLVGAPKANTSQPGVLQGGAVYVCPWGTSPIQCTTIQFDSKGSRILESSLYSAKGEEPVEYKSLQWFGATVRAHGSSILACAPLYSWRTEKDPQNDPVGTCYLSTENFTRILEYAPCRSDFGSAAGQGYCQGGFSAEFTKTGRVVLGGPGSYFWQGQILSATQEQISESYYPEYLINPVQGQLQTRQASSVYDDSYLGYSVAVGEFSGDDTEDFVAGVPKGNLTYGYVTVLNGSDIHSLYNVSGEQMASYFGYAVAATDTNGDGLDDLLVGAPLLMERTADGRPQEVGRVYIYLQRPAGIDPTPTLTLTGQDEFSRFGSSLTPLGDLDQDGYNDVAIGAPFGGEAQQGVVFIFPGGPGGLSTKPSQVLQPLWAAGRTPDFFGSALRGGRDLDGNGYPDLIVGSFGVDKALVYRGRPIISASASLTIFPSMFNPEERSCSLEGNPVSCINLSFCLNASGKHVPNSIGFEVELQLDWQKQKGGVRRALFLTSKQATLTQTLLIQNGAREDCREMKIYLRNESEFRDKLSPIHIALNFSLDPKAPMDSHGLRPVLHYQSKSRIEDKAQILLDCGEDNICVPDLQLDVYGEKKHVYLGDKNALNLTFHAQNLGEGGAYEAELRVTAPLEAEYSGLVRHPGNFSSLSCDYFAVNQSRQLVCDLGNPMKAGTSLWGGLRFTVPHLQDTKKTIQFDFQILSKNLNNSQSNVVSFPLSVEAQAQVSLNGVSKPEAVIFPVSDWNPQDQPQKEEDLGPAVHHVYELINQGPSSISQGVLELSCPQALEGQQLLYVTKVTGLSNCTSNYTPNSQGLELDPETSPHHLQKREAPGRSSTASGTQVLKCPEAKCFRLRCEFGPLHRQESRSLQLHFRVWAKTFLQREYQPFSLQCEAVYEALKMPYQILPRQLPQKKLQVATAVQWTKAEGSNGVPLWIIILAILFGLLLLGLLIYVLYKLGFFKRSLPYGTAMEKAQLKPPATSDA
Chain of α5β1 integrin on murine MB49-Luc bladder cancer cells (P09055 21-798, chain 2 of 2): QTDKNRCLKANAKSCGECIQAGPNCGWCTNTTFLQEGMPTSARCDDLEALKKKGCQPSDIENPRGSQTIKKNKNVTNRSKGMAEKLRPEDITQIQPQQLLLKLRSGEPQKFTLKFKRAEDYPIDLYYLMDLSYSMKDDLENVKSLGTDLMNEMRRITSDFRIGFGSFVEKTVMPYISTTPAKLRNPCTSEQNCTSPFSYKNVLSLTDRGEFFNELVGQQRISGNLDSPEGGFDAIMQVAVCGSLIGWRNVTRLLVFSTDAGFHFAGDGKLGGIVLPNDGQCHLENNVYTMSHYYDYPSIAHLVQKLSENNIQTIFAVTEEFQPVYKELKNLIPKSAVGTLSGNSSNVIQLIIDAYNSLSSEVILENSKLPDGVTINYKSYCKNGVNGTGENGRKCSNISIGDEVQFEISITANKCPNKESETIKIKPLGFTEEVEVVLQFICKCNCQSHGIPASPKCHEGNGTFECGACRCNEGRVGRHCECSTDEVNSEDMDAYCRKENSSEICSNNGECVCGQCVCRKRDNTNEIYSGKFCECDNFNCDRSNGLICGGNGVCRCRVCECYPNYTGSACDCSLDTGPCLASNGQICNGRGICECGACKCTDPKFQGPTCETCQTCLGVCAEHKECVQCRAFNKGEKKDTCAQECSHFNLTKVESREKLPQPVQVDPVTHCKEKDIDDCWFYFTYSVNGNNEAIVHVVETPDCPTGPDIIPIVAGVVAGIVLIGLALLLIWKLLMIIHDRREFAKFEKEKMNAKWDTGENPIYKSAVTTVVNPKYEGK
Chain of mouse integrin α5 subunit on the surface of MB49-Luc cells (mouse) (P11688 45-1053): as the sequence (P11688 45-1053, chain 1 of 2) above
Chain of mouse integrin β1 subunit on the surface of MB49-Luc cells (mouse) (P09055 21-798): as the sequence (P09055 21-798, chain 2 of 2) above

Molecule: N=C(N)NCCC[C@@H]1NC(=O)CNC(=O)C[C@@H](C(=O)O)NC(=O)[C@H](c2ccccc2)NC(=O)[C@H](CS)NC(=O)CNC1=O [Iso4, c(CphgisoDGRG), reference compound] (GRGC[Phg]D-OH; lactam N-6)
effect of excess free peptide on cell adhesion to GNRs@Chit-Iso4-coated plates (MB49-Luc cells [1]): completely inhibited cell adhesion
effect of excess free peptide on cell adhesion to GNRs@Chit-Iso4-coated plates (5637 cells [2]): completely inhibited cell adhesion
effect of co-administered excess free peptide on binding of GNR@Chit-Iso4 to MB49-Luc tumors [3]: reduced

Molecule: ARA-HRP: HRP control conjugate using the ARA peptide instead of Iso4
binding of HRP conjugate to plates coated with α5β1 (human integrin α5β1): but not ARA-HRP, could bind α5β1 in a dose dependent manner

Molecule: ARA-Qdot: c(CGARAG) peptide coupled to Qdot, negative control (cyclo(CGARAG); not fully specified (residue 1); also: coupled to Qdot605 quantum dot via Cys thiol)
binding of Qdot conjugate to cells (MB49-Luc cells [4]): but not the ARA-Qdot, bound these cells
binding of Qdot conjugate to cells (5637 cells [5]): but not the ARA-Qdot, bound these cells

Molecule: Iso4-Qdot: Iso4 coupled to fluorescent nanoparticles (Quantum Dots, Qdot) via the sulfhydryl group of the cysteine
binding of Qdot conjugate to cells (MB49-Luc cells [4]): bound these cells
binding of Qdot conjugate to cells (5637 cells [5]): bound these cells

Molecule: anti-α5 integrin mouse monoclonal antibody, clone P1D6
Fold (median fluorescence intensity over isotype control) [7]: 6 fold
Fold (median fluorescence intensity over isotype control) [8]: 4.1 fold
Fold (median fluorescence intensity over isotype control) [9]: 1.9 fold
Fold (median fluorescence intensity over isotype control) [10]: 5.8 fold
Fold (median fluorescence intensity over isotype control) [11]: 1.5 fold
Fold (median fluorescence intensity over isotype control) [12]: 2.1 fold

Molecule: anti-β1 integrin mouse monoclonal antibody, clone P5D2
Fold (median fluorescence intensity over isotype control) [14]: 18.6 fold
Fold (median fluorescence intensity over isotype control) [15]: 11.9 fold
Fold (median fluorescence intensity over isotype control) [16]: 40.5 fold
Fold (median fluorescence intensity over isotype control) [17]: 38.7 fold
Fold (median fluorescence intensity over isotype control) [18]: 1.2 fold
Fold (median fluorescence intensity over isotype control) [19]: 0.8 fold

Continued, in another order:

recovery of binding to α5β1 in human urine (human integrin α5β1; in 90% of urine, Iso4-HRP 300 nM): about 55%
Molecule: Iso4-HRP: Iso4 conjugated to maleimide-activated horseradish peroxidase via thiol group
binding of HRP conjugate to plates coated with α5β1 (human integrin α5β1): could bind α5β1 in a dose dependent manner

Fold (mean fluorescence intensity over isotype control) [6]: 3.79 fold
Molecule: anti-α5 integrin hamster monoclonal antibody, clone HMα5-1

Fold (mean fluorescence intensity over isotype control) [13]: 8.02 fold
Molecule: anti-β1 integrin hamster monoclonal antibody, clone HMβ1-1

effective concentration 50 (EC50) of cell adhesion to plates coated with GNRs@Chit-Iso4 [20]: 0.73 µg/mL
effective concentration 50 (EC50) of cell adhesion to plates coated with GNRs@Chit-Iso4 [21]: 1.3 µg/mL
B1: GNRs@Chit-Iso4 (gold nanorods coated with thiolated chitosan, carrying Iso4 via maleimide-PEG12-NHS) (other)
peptide: cyclo(C[dPhg][βAsp]GRG)
modifications: not fully specified (residue 1); also: Cys thiol coupled via maleimide-PEG12-NHS linker to thiolated-chitosan-coated gold nanorods
